From patent publication US20110111494A1 (APOGENIX, published 2011)

T1: recombinant CD95-ligand (UniProt P48023 142-281, limits assumed)
T1 sequence (looked up): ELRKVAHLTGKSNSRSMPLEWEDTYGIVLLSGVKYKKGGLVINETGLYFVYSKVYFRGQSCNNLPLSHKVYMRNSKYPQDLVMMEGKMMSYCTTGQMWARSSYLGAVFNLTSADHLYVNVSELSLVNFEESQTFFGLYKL


Target: T1, recombinant CD95-ligand
Experiment: cell-based or functional assay

Molecule | EC50 (inhibition of CD95L-induced apoptosis of Jurkat cells, Caspase 3/7 activity, Ac-DEVD-AFC cleavage) [µg/mL]
dimeric CD95R-Fc fusion protein APG101 (from UniProt P25445 26-172) | 0.595
hs95R-A69-St (CD95R-RB69 fusion polypeptide) (receptor) RLSSKSVNAQVTDINSKGLELRKTVTTVETQNLEGLHHDGQFCHKPCPPGERKARDCTVNGDEPDCVPCQEGKEYTDKAHFSSKCRRCRLCDEGHGLEVEINCTRTQNTKCRCKPNFFCNSTVCEHCDPCTKCEHGIIKECTLTSNTKCKEEGSSGSSGSSGSGYIEDAPSDGKFYVRKDGAWVELPTASGPSSSSSSAWSHPQFEK | 0.0876
hs95R-ASPD-St (CD95R-SP-D fusion polypeptide) (receptor) RLSSKSVNAQVTDINSKGLELRKTVTTVETQNLEGLHHDGQFCHKPCPPGERKARDCTVNGDEPDCVPCQEGKEYTDKAHFSSKCRRCRLCDEGHGLEVEINCTRTQNTKCRCKPNFFCNSTVCEHCDPCTKCEHGIIKECTLTSNTKCKEEGSSGSSGSSGSGLPDVASLRQQVEALQGQVQHLQAAFSQYKKVELFPNGQSVGEKIFKTAGFVKPFTEAQLLCTQAGGQLASPRSAAENAALQQLVVAKNEAAFLSMTDSKTEGKFTYPTGESLVYSNWAPGEPNDDGGSEDCVEIFTNGKWNDRACGEKRLVVCEFGGSPSSSSSSAWSHPQFEK | 0.573
hs95R-AT4-St (CD95R-T4 foldon fusion polypeptide) (receptor) RLSSKSVNAQVTDINSKGLELRKTVTTVETQNLEGLHHDGQFCHKPCPPGERKARDCTVNGDEPDCVPCQEGKEYTDKAHFSSKCRRCRLCDEGHGLEVEINCTRTQNTKCRCKPNFFCNSTVCEHCDPCTKCEHGIIKECTLTSNTKCKEEGSSGSSGSSGSGYIPEAPRDGQAYVRKDGEWVLLSTFLSGPSSSSSSAWSHPQFEK | 0.0926
